Measured values from US20140213513A1 (Sanofi, priority 2012, published 2014).
*1 amine or outer side, *2 acyl side, *3 side chain or, on linkers, in order; H or OH if unused. Where no end group is shown, it is not given here. Side-chain parts run from the residue outwards. [ ]: non-standard residue; d: D form. The star is where a group is joined. γGlu = O=C(O)[C@H](CCC(=O)[*:2])N[*:1]; Palmitoyl = CCCCCCCCCCCCCCCC(=O)*; Aib = CC(C)(N)C(=O)O

B1: exendin-4 peptide analogue SEQ ID NO: 49 (peptide)
peptide: Y[Aib]QGTFTSDLSIQK([γGlu-Palmitoyl])DSIAAQDFIEWLKAGGPSSGAPPPS-NH2
modifications: N-terminus assumed
SMILES: CCCCCCCCCCCCCCCC(=O)N[C@@H](CCC(=O)NCCCC[C@H](NC(=O)[C@H](CCC(N)=O)NC(=O)[C@@H](NC(=O)[C@H](CO)NC(=O)[C@H](CC(C)C)NC(=O)[C@H](CC(=O)O)NC(=O)[C@H](CO)NC(=O)[C@@H](NC(=O)[C@H](Cc1ccccc1)NC(=O)[C@@H](NC(=O)CNC(=O)[C@H](CCC(N)=O)NC(=O)C(C)(C)NC(=O)[C@@H](N)Cc1ccc(O)cc1)[C@@H](C)O)[C@@H](C)O)[C@@H](C)CC)C(=O)N[C@@H](CC(=O)O)C(=O)N[C@@H](CO)C(=O)N[C@H](C(=O)N[C@@H](C)C(=O)N[C@@H](C)C(=O)N[C@@H](CCC(N)=O)C(=O)N[C@@H](CC(=O)O)C(=O)N[C@@H](Cc1ccccc1)C(=O)N[C@H](C(=O)N[C@@H](CCC(=O)O)C(=O)N[C@@H](Cc1c[nH]c2ccccc12)C(=O)N[C@@H](CC(C)C)C(=O)N[C@@H](CCCCN)C(=O)N[C@@H](C)C(=O)NCC(=O)NCC(=O)N1CCC[C@H]1C(=O)N[C@@H](CO)C(=O)N[C@@H](CO)C(=O)NCC(=O)N[C@@H](C)C(=O)N1CCC[C@H]1C(=O)N1CCC[C@H]1C(=O)N1CCC[C@H]1C(=O)N[C@@H](CO)C(N)=O)[C@@H](C)CC)[C@@H](C)CC)C(=O)O
B2: exendin-4 peptide analogue SEQ ID NO: 51 (peptide)
peptide: Y[Aib]QGTFTSDLSIQK([γGlu-Palmitoyl])DSRAQQDFIEWLKAGGPSSGAPPPS-NH2
modifications: N-terminus assumed
SMILES: CCCCCCCCCCCCCCCC(=O)N[C@@H](CCC(=O)NCCCC[C@H](NC(=O)[C@H](CCC(N)=O)NC(=O)[C@@H](NC(=O)[C@H](CO)NC(=O)[C@H](CC(C)C)NC(=O)[C@H](CC(=O)O)NC(=O)[C@H](CO)NC(=O)[C@@H](NC(=O)[C@H](Cc1ccccc1)NC(=O)[C@@H](NC(=O)CNC(=O)[C@H](CCC(N)=O)NC(=O)C(C)(C)NC(=O)[C@@H](N)Cc1ccc(O)cc1)[C@@H](C)O)[C@@H](C)O)[C@@H](C)CC)C(=O)N[C@@H](CC(=O)O)C(=O)N[C@@H](CO)C(=O)N[C@@H](CCCNC(=N)N)C(=O)N[C@@H](C)C(=O)N[C@@H](CCC(N)=O)C(=O)N[C@@H](CCC(N)=O)C(=O)N[C@@H](CC(=O)O)C(=O)N[C@@H](Cc1ccccc1)C(=O)N[C@H](C(=O)N[C@@H](CCC(=O)O)C(=O)N[C@@H](Cc1c[nH]c2ccccc12)C(=O)N[C@@H](CC(C)C)C(=O)N[C@@H](CCCCN)C(=O)N[C@@H](C)C(=O)NCC(=O)NCC(=O)N1CCC[C@H]1C(=O)N[C@@H](CO)C(=O)N[C@@H](CO)C(=O)NCC(=O)N[C@@H](C)C(=O)N1CCC[C@H]1C(=O)N1CCC[C@H]1C(=O)N1CCC[C@H]1C(=O)N[C@@H](CO)C(N)=O)[C@@H](C)CC)C(=O)O
B3: exendin-4 peptide analogue SEQ ID NO: 50 (peptide)
peptide: Y[Aib]QGTFTSDLSIQK([γGlu-Palmitoyl])DSRAVQDFIEWLKAGGPSSGAPPPS-NH2
modifications: N-terminus assumed
SMILES: CCCCCCCCCCCCCCCC(=O)N[C@@H](CCC(=O)NCCCC[C@H](NC(=O)[C@H](CCC(N)=O)NC(=O)[C@@H](NC(=O)[C@H](CO)NC(=O)[C@H](CC(C)C)NC(=O)[C@H](CC(=O)O)NC(=O)[C@H](CO)NC(=O)[C@@H](NC(=O)[C@H](Cc1ccccc1)NC(=O)[C@@H](NC(=O)CNC(=O)[C@H](CCC(N)=O)NC(=O)C(C)(C)NC(=O)[C@@H](N)Cc1ccc(O)cc1)[C@@H](C)O)[C@@H](C)O)[C@@H](C)CC)C(=O)N[C@@H](CC(=O)O)C(=O)N[C@@H](CO)C(=O)N[C@@H](CCCNC(=N)N)C(=O)N[C@@H](C)C(=O)N[C@H](C(=O)N[C@@H](CCC(N)=O)C(=O)N[C@@H](CC(=O)O)C(=O)N[C@@H](Cc1ccccc1)C(=O)N[C@H](C(=O)N[C@@H](CCC(=O)O)C(=O)N[C@@H](Cc1c[nH]c2ccccc12)C(=O)N[C@@H](CC(C)C)C(=O)N[C@@H](CCCCN)C(=O)N[C@@H](C)C(=O)NCC(=O)NCC(=O)N1CCC[C@H]1C(=O)N[C@@H](CO)C(=O)N[C@@H](CO)C(=O)NCC(=O)N[C@@H](C)C(=O)N1CCC[C@H]1C(=O)N1CCC[C@H]1C(=O)N1CCC[C@H]1C(=O)N[C@@H](CO)C(N)=O)[C@@H](C)CC)C(C)C)C(=O)O
B4: exendin-4 peptide analogue SEQ ID NO: 47 (peptide)
peptide: Y[Aib]QGTFTSDLSIQK([γGlu-Palmitoyl])DKRAVQLFIEWLKNGGPSSGAPPPS-NH2
modifications: N-terminus assumed
SMILES: CCCCCCCCCCCCCCCC(=O)N[C@@H](CCC(=O)NCCCC[C@H](NC(=O)[C@H](CCC(N)=O)NC(=O)[C@@H](NC(=O)[C@H](CO)NC(=O)[C@H](CC(C)C)NC(=O)[C@H](CC(=O)O)NC(=O)[C@H](CO)NC(=O)[C@@H](NC(=O)[C@H](Cc1ccccc1)NC(=O)[C@@H](NC(=O)CNC(=O)[C@H](CCC(N)=O)NC(=O)C(C)(C)NC(=O)[C@@H](N)Cc1ccc(O)cc1)[C@@H](C)O)[C@@H](C)O)[C@@H](C)CC)C(=O)N[C@@H](CC(=O)O)C(=O)N[C@@H](CCCCN)C(=O)N[C@@H](CCCNC(=N)N)C(=O)N[C@@H](C)C(=O)N[C@H](C(=O)N[C@@H](CCC(N)=O)C(=O)N[C@@H](CC(C)C)C(=O)N[C@@H](Cc1ccccc1)C(=O)N[C@H](C(=O)N[C@@H](CCC(=O)O)C(=O)N[C@@H](Cc1c[nH]c2ccccc12)C(=O)N[C@@H](CC(C)C)C(=O)N[C@@H](CCCCN)C(=O)N[C@@H](CC(N)=O)C(=O)NCC(=O)NCC(=O)N1CCC[C@H]1C(=O)N[C@@H](CO)C(=O)N[C@@H](CO)C(=O)NCC(=O)N[C@@H](C)C(=O)N1CCC[C@H]1C(=O)N1CCC[C@H]1C(=O)N1CCC[C@H]1C(=O)N[C@@H](CO)C(N)=O)[C@@H](C)CC)C(C)C)C(=O)O
B5: exendin-4 peptide analogue SEQ ID NO: 10 (peptide)
peptide: Y[Aib]QGTFTSDLSIQK([γGlu-Palmitoyl])EKYAA[Aib]EFIEWLKNTGPSSGAPPPS-NH2
modifications: N-terminus assumed
SMILES: CCCCCCCCCCCCCCCC(=O)N[C@@H](CCC(=O)NCCCC[C@H](NC(=O)[C@H](CCC(N)=O)NC(=O)[C@@H](NC(=O)[C@H](CO)NC(=O)[C@H](CC(C)C)NC(=O)[C@H](CC(=O)O)NC(=O)[C@H](CO)NC(=O)[C@@H](NC(=O)[C@H](Cc1ccccc1)NC(=O)[C@@H](NC(=O)CNC(=O)[C@H](CCC(N)=O)NC(=O)C(C)(C)NC(=O)[C@@H](N)Cc1ccc(O)cc1)[C@@H](C)O)[C@@H](C)O)[C@@H](C)CC)C(=O)N[C@@H](CCC(=O)O)C(=O)N[C@@H](CCCCN)C(=O)N[C@@H](Cc1ccc(O)cc1)C(=O)N[C@@H](C)C(=O)N[C@@H](C)C(=O)NC(C)(C)C(=O)N[C@@H](CCC(=O)O)C(=O)N[C@@H](Cc1ccccc1)C(=O)N[C@H](C(=O)N[C@@H](CCC(=O)O)C(=O)N[C@@H](Cc1c[nH]c2ccccc12)C(=O)N[C@@H](CC(C)C)C(=O)N[C@@H](CCCCN)C(=O)N[C@@H](CC(N)=O)C(=O)N[C@H](C(=O)NCC(=O)N1CCC[C@H]1C(=O)N[C@@H](CO)C(=O)N[C@@H](CO)C(=O)NCC(=O)N[C@@H](C)C(=O)N1CCC[C@H]1C(=O)N1CCC[C@H]1C(=O)N1CCC[C@H]1C(=O)N[C@@H](CO)C(N)=O)[C@@H](C)O)[C@@H](C)CC)C(=O)O
B6: exendin-4 peptide analogue SEQ ID NO: 48 (peptide)
peptide: Y[Aib]QGTFTSDLSIQK([γGlu-Palmitoyl])DSEAAQDFIEWLKAGGPSSGAPPPS-NH2
modifications: N-terminus assumed
SMILES: CCCCCCCCCCCCCCCC(=O)N[C@@H](CCC(=O)NCCCC[C@H](NC(=O)[C@H](CCC(N)=O)NC(=O)[C@@H](NC(=O)[C@H](CO)NC(=O)[C@H](CC(C)C)NC(=O)[C@H](CC(=O)O)NC(=O)[C@H](CO)NC(=O)[C@@H](NC(=O)[C@H](Cc1ccccc1)NC(=O)[C@@H](NC(=O)CNC(=O)[C@H](CCC(N)=O)NC(=O)C(C)(C)NC(=O)[C@@H](N)Cc1ccc(O)cc1)[C@@H](C)O)[C@@H](C)O)[C@@H](C)CC)C(=O)N[C@@H](CC(=O)O)C(=O)N[C@@H](CO)C(=O)N[C@@H](CCC(=O)O)C(=O)N[C@@H](C)C(=O)N[C@@H](C)C(=O)N[C@@H](CCC(N)=O)C(=O)N[C@@H](CC(=O)O)C(=O)N[C@@H](Cc1ccccc1)C(=O)N[C@H](C(=O)N[C@@H](CCC(=O)O)C(=O)N[C@@H](Cc1c[nH]c2ccccc12)C(=O)N[C@@H](CC(C)C)C(=O)N[C@@H](CCCCN)C(=O)N[C@@H](C)C(=O)NCC(=O)NCC(=O)N1CCC[C@H]1C(=O)N[C@@H](CO)C(=O)N[C@@H](CO)C(=O)NCC(=O)N[C@@H](C)C(=O)N1CCC[C@H]1C(=O)N1CCC[C@H]1C(=O)N1CCC[C@H]1C(=O)N[C@@H](CO)C(N)=O)[C@@H](C)CC)C(=O)O

Tests used:
Experiment in all cases: cell-based or functional assay
human GIP receptor = molecular target: T1, human GIP receptor (human, UniProt P48546 22-466)
T1 sequence (looked up): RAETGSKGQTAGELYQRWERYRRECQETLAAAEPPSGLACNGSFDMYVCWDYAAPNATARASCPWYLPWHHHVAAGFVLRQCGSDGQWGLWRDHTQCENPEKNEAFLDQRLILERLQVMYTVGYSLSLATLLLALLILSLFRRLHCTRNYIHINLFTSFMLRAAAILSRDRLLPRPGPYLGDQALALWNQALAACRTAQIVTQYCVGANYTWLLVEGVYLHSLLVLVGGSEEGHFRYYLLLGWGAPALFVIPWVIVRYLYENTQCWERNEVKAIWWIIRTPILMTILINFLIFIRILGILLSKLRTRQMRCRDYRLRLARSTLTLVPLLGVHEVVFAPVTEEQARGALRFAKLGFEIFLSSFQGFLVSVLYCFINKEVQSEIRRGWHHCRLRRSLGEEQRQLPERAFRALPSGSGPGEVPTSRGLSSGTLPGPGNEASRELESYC

human GLP-1 receptor = human GLP-1 receptor (human, UniProt P43220 24-463)
human glucagon receptor = human glucagon receptor (human, UniProt P47871 26-477)
Sequence of human glucagon receptor (P47871 26-477): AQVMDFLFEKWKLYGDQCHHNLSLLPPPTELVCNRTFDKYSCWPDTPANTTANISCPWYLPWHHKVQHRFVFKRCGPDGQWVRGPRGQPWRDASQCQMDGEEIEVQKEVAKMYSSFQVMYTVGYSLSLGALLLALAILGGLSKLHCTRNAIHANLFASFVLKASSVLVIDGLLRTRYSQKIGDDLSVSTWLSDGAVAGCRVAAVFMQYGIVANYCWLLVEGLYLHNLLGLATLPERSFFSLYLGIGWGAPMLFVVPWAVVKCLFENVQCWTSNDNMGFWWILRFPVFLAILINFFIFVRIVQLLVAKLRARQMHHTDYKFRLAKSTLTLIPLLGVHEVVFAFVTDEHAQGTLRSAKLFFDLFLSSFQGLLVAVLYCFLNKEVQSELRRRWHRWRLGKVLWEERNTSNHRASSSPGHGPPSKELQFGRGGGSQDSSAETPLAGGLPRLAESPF

Row | Binder | EC50 hGIP R (human GIP receptor) | EC50 hGLP-1 R (human GLP-1 receptor) | EC50 hGLUC R (human glucagon receptor)
1 | B1 | 0.0456 nM | 0.0172 nM | 0.195 nM
2 | B2 | 0.0063 nM | 0.0042 nM | 0.571 nM
3 | B3 | 0.0479 nM | 0.01 nM | 1.72 nM
4 | B4 | 0.0442 nM | 0.0156 nM | 2.39 nM
5 | B5 | 0.0144 nM | 0.0052 nM | 0.667 nM
6 | B6 | 0.0158 nM | 0.0101 nM | 0.478 nM
